According to patent US20220380739:

How the values were obtained:
Abz-VDVADVA-Dap (Dnp) = target: T1, Abz-VDVADVA-Dap (Dnp)
T1 chain: VDVADVA

Abz-VDVADHA-Dap (Dnp) = target: T2, Abz-VDVADHA-Dap (Dnp)
T2 chain: VDVADHA

Abz-VDVADNA-Dap (Dnp) = target: T3, Abz-VDVADNA-Dap (Dnp)
T3 chain: VDVADNA

Abz-VDVADLA-Dap (Dnp) = target: T4, Abz-VDVADLA-Dap (Dnp)
T4 chain: VDVADLA

Abz-VDVADDA-Dap (Dnp) = target: T5, Abz-VDVADDA-Dap (Dnp)
T5 chain: VDVADDA

Abz-VDVADQA-Dap (Dnp) = target: T6, Abz-VDVADQA-Dap (Dnp)
T6 chain: VDVADQA

Abz-VDVADWA-Dap (Dnp) = target: T7, Abz-VDVADWA-Dap (Dnp)
T7 chain: VDVADWA

Abz-VDVADMA-Dap (Dnp) = target: T8, Abz-VDVADMA-Dap (Dnp)
T8 chain: VDVADMA

Abz-VDVADFA-Dap (Dnp) = target: T9, Abz-VDVADFA-Dap (Dnp)
T9 chain: VDVADFA

Abz-VDVADGA-Dap (Dnp) = target: T10, Abz-VDVADGA-Dap (Dnp)
T10 chain: VDVADGA

Abz-VDVADSA-Dap (Dnp) = target: T11, Abz-VDVADSA-Dap (Dnp)
T11 chain: VDVADSA

Abz-VDVADPA-Dap (Dnp) = target: T12, Abz-VDVADPA-Dap (Dnp)
T12 chain: VDVADPA

[1] = target: T7AC_6H_GSGSGSG_VDVAD-hFGF2
Abz-VDVADIA-Dap (Dnp) = target: T13, Abz-VDVADIA-Dap (Dnp)
T13 chain: VDVADIA

Abz-VDVADTA-Dap (Dnp) = target: T14, Abz-VDVADTA-Dap (Dnp)
T14 chain: VDVADTA

Abz-VDVADYA-Dap (Dnp) = target: T15, Abz-VDVADYA-Dap (Dnp)
T15 chain: VDVADYA

Abz-VDVADKA-Dap (Dnp) = target: T16, Abz-VDVADKA-Dap (Dnp)
T16 chain: VDVADKA

Abz-VDVADAA-Dap (Dnp) = target: T17, Abz-VDVADAA-Dap (Dnp)
T17 chain: VDVADAA

Abz-VDVADRA-Dap (Dnp) = target: T18, Abz-VDVADRA-Dap (Dnp)
T18 chain: VDVADRA

Abz-VDVADEA-Dap (Dnp) = target: T19, Abz-VDVADEA-Dap (Dnp)
T19 chain: VDVADEA

B1: T7AC_6H_mS9ProD (protein)
chain: MLEDPERNKERKEAELQAQTAEQHHHHHHGKNHAGSPGCEESAAGKEKLPKMRLPTRSDMICGYACLKGTAAMRNTKRGSWYIEALAQVFSERACDMHVADMLVKVNALIKDREGYAPGTEFHRCKVMSEYCSTLCRHLYLFPGHPPTGSGPVCLQVKPCTPEFYQTHFQLAYRLQSRPRGLALVLSNVHFTDEKELEFRSGGDVDHSTLVTLFKLLGYDVHVLCDQTAQEMQEKLQNFAQLPAHRGTDSCIVALLSHGVEGAIYGVDGKLLQLQEVFQLFDNANCPSLQNKPKMFFIQACRGEETDRGVDQQD
KM (Abz-VDVADVA-Dap (Dnp)): 100 µM
KM (Abz-VDVADHA-Dap (Dnp)): 170 µM
KM (Abz-VDVADNA-Dap (Dnp)): 130 µM
KM (T7AC-6H-GSG-VDVAD-hFGF-2): 329 µM
KM (T7AC_6H_GSG_VDSAD-hFGF2): 865 µM
KM (Abz-VDVADLA-Dap (Dnp)): 400 µM
KM (Abz-VDVADDA-Dap (Dnp)): 190 µM
KM (Abz-VDVADQA-Dap (Dnp)): 120 µM
KM (Abz-VDVADWA-Dap (Dnp)): 53 µM
KM (Abz-VDVADMA-Dap (Dnp)): 480 µM
KM (Abz-VDVADFA-Dap (Dnp)): 120 µM
KM (Abz-VDVADGA-Dap (Dnp)): 65 µM
KM (Abz-VDVADSA-Dap (Dnp)): 180 µM
KM (Abz-VDVADPA-Dap (Dnp)): 100 µM
KM [1]: 252 µM
KM (Abz-VDVADIA-Dap (Dnp)): 110 µM
KM (Abz-VDVADTA-Dap (Dnp)): 120 µM
KM (Abz-VDVADYA-Dap (Dnp)): 900 µM
KM (Abz-VDVADKA-Dap (Dnp)): 79 µM
KM (Abz-VDVADAA-Dap (Dnp)): 100 µM
KM (Abz-VDVADRA-Dap (Dnp)): 47 µM
KM (Abz-VDVADEA-Dap (Dnp)): 160 µM
KM (T7AC-6H-VDVAD-hFGF2): 529 µM
